Patent publication US20260242474A1 (PERSONGEN BIOTHERAPEUTICS SUZHOU, published 2026)

What was measured:
[1] = molecular target: T1, PD1-Fc recombinant protein (human, UniProt Q15116 25-167); assay: phage ELISA, wells coated with PD1-Fc (Fc and blocked wells as controls)
T1 construct: range 25-167; also called PD1-Fc antigen; PD1-Fc protein; not shown: human IgG1 Fc tag at the C-terminus

[2] = molecular target: T1, PD1-Fc recombinant protein; assay: SPR, PD1-Fc immobilized on CM5 chip, antibody as mobile phase

T1 sequence (Q15116 25-167 limits assumed): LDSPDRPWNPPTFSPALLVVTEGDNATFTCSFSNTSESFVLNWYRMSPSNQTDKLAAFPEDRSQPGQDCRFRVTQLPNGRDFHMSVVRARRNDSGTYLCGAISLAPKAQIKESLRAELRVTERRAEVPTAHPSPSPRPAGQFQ

| Binder | binding result [1] | Kd [2] | koff [2] | kon [2] |
| --- | --- | --- | --- | --- |
| 2-C10 VHH displayed on phage (clone from cross-panning) (VHH, Tested as a phage monoclone (pComF display vector, M13) in phage ELISA; the phage fusion partner is not described) VHH: QVQLVESGGGLVQPGGSLRLSCAASGFSLDAYTIGWFRQAPGQEREGISCISRSGRITNYARSAKDRFTISRDNAKNTVYLEMKNLRPEDTGAYYCAAVEMDPFLCSGYTQSYDQWGQGTQVTVSS | binds | – | – | – |
| 2-C10-(G4S)3-2-B1 bivalent PD1 antibody (with human IgG1 Fc) (Fc fusion, Two VHH joined by (G4S)3, subcloned in tandem with human IgG1 Fc; purified on Protein A; not shown: human IgG1 Fc, in tandem C-terminal (vector pcDNA3.4-hIgG1-Fc2)) QVQLVESGGGLVQPGGSLRLSCAASGFSLDAYTIGWFRQAPGQEREGISCISRSGRITNYARSAKDRFTISRDNAKNTVYLEMKNLRPEDTGAYYCAAVEMDPFLCSGYTQSYDQWGQGTQVTVSSGGGGSGGGGSGGGGSQVQLVESGGGLVQPGGSLTVSCAASGFSLDAYTIGWFRQAPGKEREGIICISRGGRITNYAHSVKDRFTISRDGAKNTVYLHMNSLKPEDTGAYYCAAVQRDPFICSGYTQSYDHWGQGTQVTVSS | – | 0.0211 nM | 3.29e-05 s⁻¹ | 1.56e+06 M⁻¹ s⁻¹ |
| 2-C10-(G4S)3-2-F3 bivalent PD1 antibody (with human IgG1 Fc) (Fc fusion, Two VHH joined by (G4S)3, subcloned in tandem with human IgG1 Fc; purified on Protein A; not shown: human IgG1 Fc, in tandem C-terminal (vector pcDNA3.4-hIgG1-Fc2)) QVQLVESGGGLVQPGGSLRLSCAASGFSLDAYTIGWFRQAPGQEREGISCISRSGRITNYARSAKDRFTISRDNAKNTVYLEMKNLRPEDTGAYYCAAVEMDPFLCSGYTQSYDQWGQGTQVTVSSGGGGSGGGGSGGGGSQVKLEESGGGLVQPGGSLTVSCVASGFSLDAYTIGWFRQAPGKEREGIICISRGGRITNYAHSVKDRFTISRDGAKNMVYLHMNSLKPEDTGAYYCAAVQRDPFICSGYTQSYDLWGQGTQVTVSS | – | 0.28 nM | 8.92e-05 s⁻¹ | 318000 M⁻¹ s⁻¹ |
| 2-F3-(G4S)3-2-B1 bivalent PD1 antibody (with human IgG1 Fc) (Fc fusion, Two VHH joined by (G4S)3, subcloned in tandem with human IgG1 Fc; purified on Protein A; not shown: human IgG1 Fc, in tandem C-terminal (vector pcDNA3.4-hIgG1-Fc2)) QVKLEESGGGLVQPGGSLTVSCVASGFSLDAYTIGWFRQAPGKEREGIICISRGGRITNYAHSVKDRFTISRDGAKNMVYLHMNSLKPEDTGAYYCAAVQRDPFICSGYTQSYDLWGQGTQVTVSSGGGGSGGGGSGGGGSQVQLVESGGGLVQPGGSLTVSCAASGFSLDAYTIGWFRQAPGKEREGIICISRGGRITNYAHSVKDRFTISRDGAKNTVYLHMNSLKPEDTGAYYCAAVQRDPFICSGYTQSYDHWGQGTQVTVSS | – | 0.282 nM | 0.000118 s⁻¹ | 418000 M⁻¹ s⁻¹ |
